Test results from publication PMC3428623.

Molecular target: Pbs2-HKMT (S. cerevisiae) (UniProt P08018)
Assay: proximity labelling

Pbs2-HKMT (S. cerevisiae), sequence (P08018 whole entry): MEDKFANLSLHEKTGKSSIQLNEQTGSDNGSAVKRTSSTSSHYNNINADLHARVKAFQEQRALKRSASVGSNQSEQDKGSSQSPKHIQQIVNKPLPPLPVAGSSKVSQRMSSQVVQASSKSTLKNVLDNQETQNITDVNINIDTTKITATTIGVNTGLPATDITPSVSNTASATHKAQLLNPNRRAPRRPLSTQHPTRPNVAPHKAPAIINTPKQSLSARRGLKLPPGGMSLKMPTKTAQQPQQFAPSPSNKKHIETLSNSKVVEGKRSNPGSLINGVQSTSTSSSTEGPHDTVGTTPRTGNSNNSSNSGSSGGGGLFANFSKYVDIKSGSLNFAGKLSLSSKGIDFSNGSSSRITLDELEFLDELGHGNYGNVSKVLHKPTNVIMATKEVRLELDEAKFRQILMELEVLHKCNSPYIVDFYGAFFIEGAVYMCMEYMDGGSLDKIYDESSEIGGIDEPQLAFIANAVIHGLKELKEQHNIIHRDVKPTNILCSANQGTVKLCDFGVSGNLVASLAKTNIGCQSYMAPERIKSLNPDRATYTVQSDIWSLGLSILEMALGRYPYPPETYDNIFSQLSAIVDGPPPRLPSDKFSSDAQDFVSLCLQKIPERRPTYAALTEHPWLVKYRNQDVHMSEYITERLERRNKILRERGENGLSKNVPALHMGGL

Substance | percent reduction in methylation signal in comparison with wild-type Sho1 [%]
Sho1-H3-HA Y8A mutant (natural protein) | 70
Sho1-H3-HA Y54M mutant (natural protein) | 92
